Assay: label from the status in PepcDB records

| Sequence | protein production |
| --- | --- |
| MTGTYTELIEGSERLSGLTDVDEVIKDLSRLLRKLVKTRWIAVYFFDRERRDFAPARSTGLPASFLPVFREMPLAPDKIPLLKSMLRKRQHLMLTDPGSSDLLTPKLRKLLRNLCVLAVPMVVRTQVIGAVFMARTRDNPPFSDAETAIIRDLVSHAALVVSHMQLFDE | not failed |
| MKIKILAVLAVVTVIVVSMFMREKREDPSSLVMMNVEALATGEGTSPAICVGTGSVVCPNDGSKVLYYR | failed |
| MPGTNNEATRKEEVKKIVENRRRKAELIREQQIKKRNTIIAIGVGILVVLILVMVLAKSCSSGKKPAKTSATTAKQITTVAQTTVQETTTAEEYMYTTDVLNLRKSASAKSKLITQIGAGKKVQVISENGKWCQIKYGKDTGYVMKKYLSYSNMLD | failed |
| MLKLAQAEEAEAKRGKLKIFLGYAAGVGKTYAMLQAARERRHEGRDVVAAYVESHGRPETDALLEGLEILPAARIEYQGVMLPELDIDGVLARRPQLALVDELAHTNAPGSRHEKRWQDVEELLAAGIDVFTTVNVQHFESLNDVVAQITGIAVRETVPDRLLDLAAEIRLVDIPPEDLLQRLREGKVYVPEQAAFAAEKFFRAGNLIALRELSLRRAAVRVDEEMRAYMEARAIPGPWPAAERLLVSISGSPFSERLIRTTRRLADELKAPWFTVYVETPGNGRHEQENRKRVWKDLRLAESLGAQVATVTATSVAEALIDYARRHNVTRIVVGKPAKPRWREFLRLPLVDRIIRLSGAIDVHVVSYEPAEAGKGPVLPVRRGPISFSGYLASLALVVAASLACLLLRPFLAPTNMVMIYLLAVVLAALRLGLKPAILTAFLGVLAFDFFFIPPHLTFAVADTQYLITFVALFTVGVVISTLVSTVRERAEAVREREEQTASLYYLSRDLAAAADIETLVAAVIRNIGETLFARAAVLLPEGDRLRVAAASKGLKPDVKEMAVADWAFRNRQTAGQGTETLASAGFLYLPLQTSGSVLGVLGVRLKNDADYRSTQVRRMLDAFTSQTAMALERVQLSRQAEQAQILQARENLERALLNSISHDLRTPLVAITGALDTLRDKVHTLADESRLELLDTAWEEAERLNRFVGNLLDMTRLESGAIKLKRELSDVQDLIGCALAALERRIGERGIDVRLAPDLPLVRIDMVLMTQVLVNLLDNALKYSPPDSGVEITARVDGGRLRIEMADRGPGIPEQDLKRVFDKFYRIAVPEGAQGTGLGLSICKGIVEAHGGSIRAENRTGGGLRVIVTLPLAGGAKEGVSHGP | failed |
| MQFIWAALGLVCVALALIGVALPLLPTVPFLLLAAFFFARSSERLHTWLVTHRLFGPMILDWQQSGAIRPGAKKAATLSIAAVFGLSLVFAVPSHVLLIQAVVLSGVLIFIWTRPNG | failed |
| VTDILREIGMIARALDSISNIEFKELSLTRGQYLYLVRVCENPGIIQEKIAELIKVDRTTAARAIKRLEEQGFIYRQEDASNKKIKRIYATEKGKNVYPIIVRENQHSNQVALQGLSEVEISQLADYLVRMRKNVSEDWEFVKKGNTRNY | not failed |
| MKDTLKIGLLGLGTVGTGVLTLLKEHQEKISQVTGMNVVIEKAFVRNLETKQAQAEEYGLSLTTSIDDILEDKEIQIVVELMGTIEPAKTYIMKALEKGKHIVTANKDLLAQHGSELVALAQKHHCDLYYEASVAGGIPILRTIANSLAADNIQQVLGIVNGTTNYMLTQMVSADKSYEEALAEAQALGFAEADPTNDVDGIDAAYKMVILSQFAFGMNVSLPQVDIRGIRGLSLDDVAMAKQLGYEIKLIGSAEQNENSISVEVAPMLVNQKHPIASVRNEYNAVFIKSAGVGESMYYGPGAGAKPTATSVVSDLITIAKNIRLATTGHMFNSYQHKTQLTSSENVFGQYYFSLDVPDTPGQFLQLTQLMTKAEVSFDQLVQQKSDGQRARIVAITHQISKAQMQQVVIAIQNTEAFQLLNVMKVIGDE | failed |
| MTGHRPACPPIPADVYTRLERRIGRCHLNQRLGIEHDFEARIFGQGRTFFHIENWNRLHTLLRRLLKLSLLYRPGQRAARRIEIRRNEFTLPHLPEAFEGYTLLHISDLHLDMAGDLPDALIRAIGQAGHYDACVLTGDFRARTFGPYRGAIDGLAQVRTHIDKPVFAILGNHDTIRMTPEIEDLGIGVLLNEAREIRQDGASIFLAGVDDPHYYRADNIEKAADPIPQGAVSILLSHSPELYRHAAYADFDIMLCGHTHGGQICLPGGIALTLNARCPRAFGRGYWRYHRMQGYTSAGSGVSILDIRLNCPPEITLHRLSRHRLSKGGCECGGGKGLEHHHHHH | not failed |
| MKHFLTLRDFSKEEILSLVNHASELKKEPKKLLQDKTLAMIFEKNSTRTRMAFELAITELGGKALFLSSNDLQLSRGEPVKDTARVIGAMVDFVMMRVNKHETLLEFARYSKAPVINALSELYHPTQVLGDLFTIKEWNKMQNGIAKVAFIGDSNNMCNSWLITAAILGFEISIAMPKNYKISPEIWEFAMKQALISGAKISLGYDKFEALKDKDVVITDTWVSMGEENEKERKIKEFEGFMIDEKAMSVANKDAILLHCLPAYRGYEVSEEIFEKHADVIFEEARNRLYVVKALLCFLDNQRGRE | not failed |
| KRYIRKEAADALKTMFDAAKKEGYELAAVSGYRSYDRQKVIFDNEVSLKGERKAKEAVAYPGESEHQTGLAMDISSRSNGFELNEAFGSTADGKWVQDNAYKYGFIIRYPKNKEDITKYEYEPWHLRYVGK | not failed |
| MIREAQRSELPALLELWLESTIWGHPFIKSSYWRDCIPLVRDAYLANAQNWVWEEDGKLLGFVSIMEGRFLAAMFVAPKAVRRGIGKALMQYVQQRHPHLMLEVYQKNQPAIDFYHAQGFHIVDCAWQDETQLPTWIMSWPVVQTL | failed |
| MTASVTASVTAPETAPVPIVLAGARGHGRWHLDNIRRLQDRGLVRLAGICELTPLAEEELDGLGVPEQSADFGSLLDATGAAIAVICTPIPTHTDLALTAAERGVHLLLEKPPAPSFAEFRRMADGVAAAGVVCQIGFQSLGSGAVPGIRKLIAEGALGTVAGIGAAGAWARDEAYYRRAPWAGKRRLNGVDVIDGVLTNPLAHAVATALALDGSTRAEDVTDIETELLRANDIESDDTSCVRVTTKSGGRITVAATLCAEEPDEPYVLVHGDRGRITFWYKQDRVLVQRSGHGPQEIEYDRTDLLENLVGHLTHGAELLVTPESTGAFMKVVEAIRQAPDPVALPGDAWELIPGENRRVVRGVDGLVAAAADTLALYSELGASWALPNEVSSR | failed |
| MGLFELNLAIILFIIGNFIGLEYSYRKYSSPYVEKGIDKFALAISVFGGILINSPLYMLGCLLIGFPLGMRPGYGRVEFVVGLAVALFLYFLRW | failed |
| MKKTPIVFILFLLNFICLGQADTTMLLSDKAVQIEGTDAVNDLYNFKFEKAEGYFLYLKSQHPNHPMPYFLMALSNWWKMMPYIDNNDYTNAYEKEFLYYIDQTIEKGEEQFKADDQNVEAAFFLCAAHGFKGRYFSENKGYVKAAFAGKSALHYLTYTKGKGDLNPEFLFGESIFNYYAEWIKEEYPLLKPLVGLFPKGDKAVGLAQLKECATNAFYTRIEAQYFLLRIYTNEENNSRAAYPYAKYLSENFPDNPYFQRVYARLSFELGYYAQCEKICYDINYKVNIEMPGYEVNTGRYAAYFLGRILYEKSDLEKSKFYLLKTAAFAESGNMNKMGYSLSAYYYLGMIEVKSQNYSEAEKFFLKVIDLGEDKQDNSAVYNYSYASYQLASVYEKQQNTKRAESFYKDAIKRVKKLDEKSYASTIKEITANSEAGLERLKQPKK | failed |
| MSQQSSSPTKEDNNSSSPVVPNPDSVPPQLSSPALFYSSSSSQGDIYGRNNSQNLSQGEGNIRAAIGSSPLNFPSSSQRQNSDVFQSQGRQGRIRSSASASGRSRYHSDLRSDRALPTSSSSLGRNGQNRVHMRRNDIHTSDLSSPRRIVDFDTRSGVNTLDTSSSSAPPSEASEPLRIIWGTNVSIQECTTNFRNFLMSFKYKFRKILDEREEFINNTTDEELYYIKQLNEMRELGTSNLNLDARNLLAYKQTEDLYHQLLNYPQEVISIMDQTIKDCMVSLIVDNNLDYDLDEIETKFYKVRPYNVGSCKGMRELNPNDIDKLINLKGLVLRSTPVIPDMKVAFFKCNVCDHTMAVEIDRGVIQEPARCERIDCNEPNSMSLIHNRCSFADKQVIKLQETPDFVPDGQTPHSISLCVYDELVDSCRAGDRIEVTGTFRSIPIRANSRQRVLKSLYKTYVDVVHVKKVSDKRLDVDTSTIEQELMQNKVDHNEVEEVRQITDQDLAKIREVAAREDLYSLLARSIAPSIYELEDVKKGILLQLFGGTNKTFTKGGRYRGDINILLCGDPSTSKSQILQYVHKITPRGVYTSGKGSSAVGLTAYITRDVDTKQLVLESGALVLSDGGVCCIDEFDKMSDSTRSVLHEVMEQQTISIAKAGIITTLNARSSILASANPIGSRYNPNLPVTENIDLPPPLLSRFDLVYLVLDKVDEKNDRELAKHLTNLYLEDKPEHISQDDVLPVEFLTMYISYAKEHIHPIITEAAKTELVRAYVGMRKMGDDSRSDEKRITATTRQLESMIRLAEAHAKMKLKNVVELEDVQEAVRLIRSAIKDYATDPKTGKIDMNLVQTGKSVIQRKLQEDLSREIMNVLKDQASDSMSFNELIKQINEHSQDRVESSDIQEALSRLQQEDKVIVLGEGVRRSVRLNNRV | failed |
| QQVTEPEETKETLQHLLDDTASGKMVQLTFVGESAEQPLITEMIRNFNVSVNILQGKISQTKDGAYGSLFIHIDGDEEEVQNVIRFINDKQVKAEVITNV | not failed |
| MKEQILEKLKTVKYPGFEKDIVSFNFVKDIKIQDDGVFIDIEIVSANPEVANEIRKNTIEALSSLALKNIELNIITPKIPEEKSNSRSGKNIAPQVKNFIMVSSGKGGVGKSTTTVNLAISMAKMGKRVGILDADIYGPNIPRMLGETKTQPEVVGQRLKPILTHGVYMMSMGVLIEEGQGLMWRGAMIMKAIEQLLADVIWPELDVLFLDMPPGTGDAQITSAQSIPIAAGVCVSTPQTVSLDDSKRALDMFNKLHIPIAGVIENMSGFLCPDNGKEYDIFGKGTAEDMAKAYKSEVLAQIPIEMIVREGGDEGKPVSFYHPESVSSKRYLMAAEKIWSFIEKINNEGGADNSAIQPVMNGKSACSHLEHHHHHH | not failed |
| MYKTIIMPVDVFEMALSDKAVRHAEFLAQQDGVIHLLHVLPGSASFTMSRFTADLRRFEEHLQHEAETRLQTMVSHFSIDPSRIKLHVRFGSVRDMVNELASEINADVVVIGSRNPSISTHLLGSNASSVIRHAHIPVMVVR | failed |
